± gives the standard deviation of the averaged measurements.

This series deals with ATP. Briefly: switch fluorescence ratio, 500 uM ATP over buffer (Cy3 cluster intensity, sum of 5 cycles each) (fold (ratio)); higher = stronger signal-on switching upon ATP binding; sequences stand for … in TCGTCGGCAGCGTCAGATGTGTATAAGAGACAGTTTTTTTTTTTTTTTTTTTTTTTTT…TC. The following applies: aptamer strand: ATP DNA aptamer (quencher-CACCTGGGGGAGTATTGCGGAGGAAGG + anchor), 100 nM annealed; ATP concentration: 500 uM. In a few lines:
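Values give the fluorescence ratio for each switch-domain sequence, averaged from per-cluster ratios of summed target-cycle to summed buffer-cycle Cy3 intensity. The Cy3-labelled switching-strand clusters sat on a modified Illumina MiSeq flow-cell, were annealed to 100 nM quencher-labelled ATP aptamer, and were imaged in selection buffer, then after 15 min with 500 uM ATP at 22 °C. Five cycles ran with NaOH stripping and re-annealing between them, and clusters outside 100-1000 RFU were excluded.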
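Note: ATP exposure 15 min at 22 °C before imaging.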

Consider AAGTGCACGG, for which the switch fluorescence ratio is 1 ± 0.036. Turning to AAGTGGAAAT, the switch fluorescence ratio worked out at 0.9962 ± 0.0019. To AAGTGGAATG belongs 1.02 ± 0.03. As for AAGTGGGAAC, the switch fluorescence ratio was 1.02 ± 0.016. To AAGTGGGCCC belongs 0.983 ± 0.013. The same measure for AAGTGGGCTG: 0.981 ± 0.023.

In the case of AAGTGGGGAG, the switch fluorescence ratio was determined as 1 ± 0.024. In the case of AAGTGGGTCG, the switch fluorescence ratio turned out to be 0.9408 ± 0.0023. The same measure for AAGTGGGTGG: 1.02 ± 0.021; for AAGTGGTAAG: 0.996 ± 0.034; for AAGTGGTACA: 0.968 ± 0.049. The same measure for AAGTGTAAAA: 1 ± 0.038. The same measure for AAGTGTCAGT: 0.977 ± 0.065. With AAGTGTCATT, the switch fluorescence ratio was 0.9999 ± 0.0028.

As to AAGTGTGCCT, the switch fluorescence ratio worked out at 0.983 ± 0.01.

Turning to AAGTGTGGGG, the switch fluorescence ratio came to 1 ± 0.025. To AAGTGTGGTA belongs 0.991 ± 0.018.

AAGTGTGTTC: the switch fluorescence ratio was 0.999 ± 0.016.

In the case of AAGTGTGTTT, the switch fluorescence ratio was found to be 1 ± 0.031. To AAGTGTTAGC belongs 0.995 ± 0.022; to AAGTTAAGGC, 1.02 ± 0.013; to AAGTTAAGGT, 1.005 ± 0.002. To AAGTTAGGGT belongs 0.999 ± 0.021.

Take AAGTTAGTGG: the switch fluorescence ratio turned out to be 1.01 ± 0.04. The same measure for AAGTTATATG: 0.987 ± 0.0099; for AAGTTATGGG: 1 ± 0.023; for AAGTTCATAT: 0.965 ± 0.015. For the sequence AAGTTGAAAA, the switch fluorescence ratio was determined as 1.004 ± 0.0028. As to AAGTTGAATA, the switch fluorescence ratio worked out at 0.985 ± 0.021. The same measure for AAGTTGATGC: 1.011 ± 0.0027; for AAGTTGCAGC: 1 ± 0.025; for AAGTTGCTGT: 1.02 ± 0.063. The same measure for AAGTTGGCAT: 0.977 ± 0.04. To AAGTTGGGCA belongs 0.969 ± 0.039.

Consider AAGTTGGGTG, for which the switch fluorescence ratio is 1 ± 0.025.

Turning to AAGTTGGTTA, the switch fluorescence ratio was determined as 0.991 ± 0.026.

Turning to AAGTTGTAAT, the switch fluorescence ratio was determined as 1.014 ± 0.0013. The same measure for AAGTTGTGCG: 0.986 ± 0.029; for AAGTTGTTGA: 1 ± 0.028. Take AAGTTTAAAT: the switch fluorescence ratio amounted to 0.999 ± 0.02.

As for AAGTTTAAGT, the switch fluorescence ratio amounted to 0.989 ± 0.013. To AAGTTTAATT belongs 1.02 ± 0.012. The same measure for AAGTTTAGTC: 1.03 ± 0.034; for AAGTTTATAA: 1 ± 0.015; for AAGTTTATGC: 0.977 ± 0.025. The same measure for AAGTTTGAAT: 0.978 ± 0.013; for AAGTTTGCTA: 1.01 ± 0.031. For the sequence AAGTTTTAAG, the switch fluorescence ratio stood at 1 ± 0.021.

For the sequence AAGTTTTCTC, the switch fluorescence ratio was 0.951 ± 0.0028.

Take AAGTTTTTGC: the switch fluorescence ratio was determined as 1.01 ± 0.019.

Take AAGTTTTTGT: the switch fluorescence ratio amounted to 0.9997 ± 0.0081. As for AATAAACAGA, the switch fluorescence ratio came out at 1.02 ± 0.017. Consider AATAAAGCCT, for which the switch fluorescence ratio was 1.15 ± 0.29.

In the case of AATAAAGGGA, the switch fluorescence ratio is 0.9841 ± 0.0045. To AATAAATCGT belongs 0.998 ± 0.024; to AATAAATT, 0.9585 ± 0.0081; to AATAAGCGCA, 0.993 ± 0.037. The same measure for AATAAGGGAT: 1.01 ± 0.045; for AATAAGGTTA: 0.984 ± 0.022. To AATAATATTA belongs 0.975 ± 0.019; to AATAATGTCG, 1.02 ± 0.06. With AATAATTACA, the switch fluorescence ratio was determined as 0.9987 ± 0.0094. The same measure for AATAATTGGT: 1.01 ± 0.012; for AATACATTCT: 1.05 ± 0.011; for AATACCAAGA: 0.9889 ± 0.0067.

Take AATACGAATA: the switch fluorescence ratio came to 1.92 ± 1.2. The same measure for AATACGGGCG: 1.008 ± 0.0056. The same measure for AATACTAAGG: 1.04 ± 0.007; for AATACTCGGG: 1.07 ± 0.033. To AATAGAGGGA belongs 0.977 ± 0.045. On to AATAGCAGGC, for which the switch fluorescence ratio was 1.06 ± 0.028. The same measure for AATAGCGGAA: 1 ± 0.015; for AATAGCTATT: 0.986 ± 0.023; for AATAGGAGGC: 1.05 ± 0.053.

Turning to AATAGGCAAT, the switch fluorescence ratio was 1.16 ± 0.034. To AATAGGGAGG belongs 0.979 ± 0.025. To AATAGGGGAG belongs 1 ± 0.037. To AATAGGGGGT belongs 0.996 ± 0.018. As to AATAGGGTGC, the switch fluorescence ratio was 1.07 ± 0.045.

The values are drawn from the supplement of paper PMC10126150.
